No end group written: not given here.
Biological target: T1, ER (Homo sapiens, UniProt P03372, G400V)
T1 construct: Full-length ER and TR2 in eukaryotic expression vectors (pSG5-ER and pCMV-TR2) were co-transfected; expressed in transfected cells; host or cells: PC-3 and H1299 (pSG5-ER transfected)
T1 sequence (P03372 1-595 G400V): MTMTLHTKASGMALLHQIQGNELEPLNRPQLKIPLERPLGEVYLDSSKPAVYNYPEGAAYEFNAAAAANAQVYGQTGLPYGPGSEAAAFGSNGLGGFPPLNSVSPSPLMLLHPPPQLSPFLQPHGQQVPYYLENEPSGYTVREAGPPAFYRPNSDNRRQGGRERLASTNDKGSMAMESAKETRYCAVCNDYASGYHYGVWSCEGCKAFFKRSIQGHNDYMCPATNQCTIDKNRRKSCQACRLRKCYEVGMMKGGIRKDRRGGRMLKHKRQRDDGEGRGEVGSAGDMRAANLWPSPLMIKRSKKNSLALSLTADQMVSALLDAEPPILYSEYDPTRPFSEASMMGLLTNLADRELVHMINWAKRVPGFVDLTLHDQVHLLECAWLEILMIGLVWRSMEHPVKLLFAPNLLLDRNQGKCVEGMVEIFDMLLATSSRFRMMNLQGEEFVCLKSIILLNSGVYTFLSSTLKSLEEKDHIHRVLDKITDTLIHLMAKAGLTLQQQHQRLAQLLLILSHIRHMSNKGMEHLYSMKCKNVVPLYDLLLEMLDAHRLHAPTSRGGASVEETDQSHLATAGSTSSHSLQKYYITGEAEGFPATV
Experiment: ER-mediated transactivation reporter assay (ERE-CAT / ERE-Luc)
Type: cell-based
Details: for Activity ER (effect of regulator on transcription activity): Table 5
Protocol: Transfections and chloramphenicol acetyltransferase (CAT) assays were performed as described previously. Yeh, & Chang, Proc. Natl. Acad. Sci. 93, 5517-5521 (1996). Briefly, 4×10^5 cells were plated in 60-mm dishes and cultured for 24 h, and then the medium was changed to phenol red free DMEM with 5% charcoal-stripped FCS 2 h before transfection. The cells were co-transfected with TR2 and/or ER expression plasmids with 2 μg of TR2-TK-CAT reporter or 1 μg of ERE-CAT reporter gene plasmid, as indicated in the Figures, by using the calcium phosphate precipitation method. A β-gal actosidase expression plasmid, pCMV-β-gal, was transfected in all transfections as an internal control for normalizing transfection efficiency. The total amount of DNA was adjusted up to 10.5 μg with parent vectors, pSG5 or pCMV in each transcriptional activity assay. […] The cells were then harvested and whole cell extracts were used for CAT assay. The CAT activity was quantitated by Phosphorlmager (Molecular Dynamics). Data are presented as means±S.D. of at least three independent experiments.
Transfections and chloramphenicol acetyltransferase (CAT) assays were performed using the calcium phosphate precipitation method, as described previously (Yeh, S. et al. (2000) Proc. Natl. Acad. Sci. USA 97, 11256-61). CAT reporter plasmids containing one copy of estrogen response element (ERE-CAT), or mouse mammary tumor virus (MMTV-CAT) were used as indicated. Also, a β-galactosidase expression plasmid, pCMV-β-gal, was used for transfection efficiency.
H1299 and MCF-7 cells were maintained in Dulbecco's modified eagle medium (DMEM) containing penicillin (25 units/ml), streptomycin (25 μg/ml), and 10% fetal calf serum (FBS). Transfections were performed using the calcium phosphate precipitation method, as described previously (Lee, Y. et al. (1999) Proc. Natl. Acad Sci. USA. 96(26) 14724-9). Briefly, 3×10^5 cells were plated on 60-mm dishes for 24 h before transfection, and the medium was changed to DMEM with 10% charcoal/dextran-stripped FBS. H1299 cells were transfected with an ER expression plasmid (pSG5-ER or pCMV-mERβ, ERE-chloramphenicol acetyltransferase (ERE-CAT) or pSG5-PR and MMTV-Luciferase reporter plasmid, and a TR4 expression plasmid (pCMV-TR4) ERZ-CAT Bradshaw et al., (1991) J. Biol. Chem. 266:16684-16690 and pCMVB-gal and PSV-RL from promega, all of which are herein incorporated by reference at least for material related to plasmids and assays, including sequence.) MCF-7 cells were only transfected with ERE-CAT reporter and TR4 expression plasmid. For all transfection experiments, pCMVβ-gal (CAT assay) or pSV-40 RL (Luciferase assay) was used as an internal control for transfection efficiency and the total amount of transfected DNA was adjusted to 12 μg with pCMV. […] After another 24 h, the cells were harvested for CAT assay or Luciferase assay. The CAT activity was visualized by Phosphorlmager (Molecular Dynamics) and quantitated by IMAGEQUANT software (Molecular Dynamics). The luciferase activity was determined by the Luminometer (Turner Designs).

**Q.** For “ER-#6: interaction blocker, ER fragment aa 312-340, as HA-tagged peptide, expression plasmid or cleaved peptide (ADQMVSALLDAEPPILYSEYDPTRPFSEA; also: HA tag (position not given here); UniProt P03372 312-340, looked up, fragment)”, which “Effect on TR2-mediated suppression of ER transcription (ERE-CAT)” value (MCF7-TR2 cells, E2 and doxycycline) is on record?
**A.** reversing this suppression

**Q.** What about the “ER transcription (ERE-luciferase)” value (MCF7 cells, increasing amounts of plasmid) of the same molecule?
**A.** enhance ER transcription

B1: TR4: human testicular orphan nuclear receptor 4, SEQ ID NO:16; expressed from plasmid or in vitro translated (protein)
chain: MTSPSPRIQIISTDSAVASPQRIQGSEPASGPLSVFTSLNKEKIVTDQQTGQKIQIVTAVDASGSPKQQFILTSPDGAGTGKVILASPETSSAKQLIFTTSDNLVPGRIQIVTDSASVERLLGKTDVQRPQVVEYCVVCGDKASGRHYGAVSCEGCKGFFKRSVRKNLTYSCRSSQDCIINKHHRNRCQFCRLKKCLEMGMKMESVQSERKPFDVQREKPSNCAASTEKIYIRKDLRSPLIATPTFVADKDGARQTGLLDPGMLVNIQQPLIREDGTVLLATDSKAETSQGALGTLANVVTSLANLSESLNNGDTSEIQPEDQSASEITRAFDTLAKALNTTDSSSSPSLADGIDTSGGGSIHVISRDQSTPIIEVEGPLLSDTHVTFKLTMPSPMPEYLNVHYICESASRLLFLSMHRARSIPAFQGLGQDCNTSLVRACWNELFTLGLAQCAQVMSLSTILAAIVNHLQNSIQEDKLSGDRIKQVMEHIWKLQEFCNSMANWDIDGYEYAYLKAIVLFSPDHPGLTSTSQIEKFQEKAQMELQDYVQKTYSEDTYRLARILVRLPALRLMSSNITEELFFTGLIGNVSIDSIIPYILKMETAEYNGQITGVSL
**Q.** For B1, which “E2-induced ERE-CAT activity, ERα” value (H1299 cells, 10 nM E2, increasing TR4 expression plasmid) is on record?
**A.** suppression of the E2-induced CAT activity in a dose-dependent manner

**Q.** And the “ER transactivation (ERE-CAT)” value (H1299 cells, ERα, 10 nM E2, full-length or C-terminal deletion TR4)?
**A.** repress ER transactivation in a dose-dependent manner

**Q.** And the ERE-CAT activity (MCF-7-TR4 cells, 2 μg/ml Dox-induced TR4)?
**A.** repress

**Q.** What about the “Endogenous ER-mediated CAT reporter activity” value (MCF-7 cells, increasing TR4) of the same molecule?
**A.** gradual decrease

**Q.** What about the “Activity ER (effect of regulator on transcription activity)” value of the same molecule?
**A.** Down

B2: TR2: human testicular orphan nuclear receptor 2, 603 amino acids (protein, UniProt P13056 1-603, looked up)
chain: MATIEEIAHQIIEQQMGEIVTEQQTGQKIQIVTALDHNTQGKQFILTNHDGSTPSKVILARQDSTPGKVFLTTPDAAGVNQLFFTTPDLSAQHLQLLTDNSPDQGPNKVFDLCVVCGDKASGRHYGAVTCEGCKGFFKRSIRKNLVYSCRGSKDCIINKHHRNRCQYCRLQRCIAFGMKQDSVQCERKPIEVSREKSSNCAASTEKIYIRKDLRSPLTATPTFVTDSESTRSTGLLDSGMFMNIHPSGVKTESAVLMTSDKAESCQGDLSTLANVVTSLANLGKTKDLSQNSNEMSMIESLSNDDTSLCEFQEMQTNGDVSRAFDTLAKALNPGESTACQSSVAGMEGSVHLITGDSSINYTEKEGPLLSDSHVAFRLTMPSPMPEYLNVHYIGESASRLLFLSMHWALSIPSFQALGQENSISLVKAYWNELFTLGLAQCWQVMNVATILATFVNCLHNSLQQDKMSTERRKLLMEHIFKLQEFCNSMVKLCIDGYEYAYLKAIVLFSPDHPSLENMEQIEKFQEKAYVEFQDYITKTYPDDTYRLSRLLLRLPALRLMNATITEELFFKGLIGNIRIDSVIPHILKMEPADYNSQIIGHSI
modifications: full-length
notes: human testicular orphan nuclear receptor 2, 603 amino acids
**Q.** What does the source list for B2?
**A.** E2-induced ER transcription (ERE-CAT) (MCF7-TR2 cells, doxycycline-induced TR2): significantly repressed; ERE-CAT activity, transfected ER (PC-3 and H1299 cells, 10 nM E2, increasing TR2 expression vector): suppression of ER transactivation in a dose-dependent manner; Endogenous ER-mediated ERE-CAT activity (T47D cells, increasing TR2 expression plasmid): repress; Activity ER (effect of regulator on transcription activity): Down; ER-mediated transcription (ERE-CAT or ERE-luciferase) (exogenous ER (PC-3, H1299) or endogenous ER (MCF7, T47D), Example 2): consistently suppressed
